{"source": "the DeepSol protein solubility set", "data": [{"assay": "soluble on expression in E. coli; label from the status in PepcDB or PDB records", "values": [{"sequence": "KPPAESASQTAVAITQSSVKTMAPALQAIVDQSWQLQLSASPEMAYGMGDKSAAGKLQDLSPEALAKLNQGQIAILVQLKALDRSKLSKEDKINAQILEDQLQNEVDLYKYKDYYLPITAESGFHAYISSIAQGRFNTQEDYQNYLDKLKALPNYFAQQTYWLKQGLKEGITPPKATLKGFENSISAYILPVEKSSYFKPFTQYPNHFTEAQKAQLTQQGRALVEQNVIPTYQAFYDFMTQEYMPNTRDNIAANSLPNGDAFYENRVRYYTTLDITSAEVHELGLKEVKRIRQEMEQVIKSVGFKGSFADFLYFLRTDPQFYATSADQLLKEAAFIAKKADATLPKYFGKLPRKPYGIAPVPAEIAPKYTSGRYSGSNRDDEPGYYWVNTYALDKRPLYELEALTLHEAVPGHHLQISLNSELSSQPDFRRYSYISAFGEGWGLYSEYLGLEAGFYQDPYSNFGRLTYEMWRAARLVVDTGMHAQGWSREQAIEFMANNTALSLHNVTTEIDRYITWPGQALSYKIGELTIKRLRAKAEQALGDKFDIRAFHDAVLENGSVPMSVLEQQINDFIEAKKAA", "soluble on expression in E. coli": "soluble"}, {"sequence": "MKVKEHCGIVGVYADNSPMISYESLKLLQHRGQESAGITYRKDGSLVTMKGLGLVEEALDPRLLPNAKLSIGHVRYSTTGKGSLDEAQPLSNGKIAIAFNGTITNYFKFGTSTDTEFILKVLSEAPNIKEGIRRLVDLADGAYSLVVLTNEGELIGFRDPKGFRPLVLGKINNGYIIASEDSVIRQLGGKPLRDVKPGEMIYIKDGEIESEVISRDRVSFCSFEYIYFARPDSIIDGVSVYNSRIKLGEILAENHGVDADVAIPVPESSIPIAIGFSRKSKIPMEYGLIRTLVAKRSFIMPTQDKRNAVLEEKFGIVKSVVENKKVVVIDDSIVRGNTMRKIVRMIRDNGAKEVHVRIGSPKVKYPCYMGIDFPLSKELIASEKDEKEIAKYIGADSVEFLTVEEMIKAIGRPDLCHACFSGVYPLKFSYNLQVLESIFKKVS", "soluble on expression in E. coli": "soluble"}, {"sequence": "VNYRTPAEIMSVANELLTQINPDIAPAMAIRESGREVVNLPLDADLSAVMDSLREEDSQRTIAVISSRRHHESDFYLVDDIKGLEFDHVIVVDPAGIVEESPQGLQDLYVAVTRATQSLTILGE", "soluble on expression in E. coli": "not soluble"}, {"sequence": "MEAQNRIEDHGIIGDMRSAALIADTGSIDFCCWPDFDSPSIFTALLDTPDAGIFQLAPDLPDARRLQIYLPDTNVLQTRWIAEQAVVEVTDLMPIGEDQDDLPRIVRRVQVRFGEATIRMRCRVRMDYSRALEHHHHHH", "soluble on expression in E. coli": "not soluble"}, {"sequence": "ASQKVEKTVIKNETGTISISQLNKNVWVHTELGSFNGEAVPSNGLVLNTSKGLVLVDSSWDDKLTKELIEMVEKKFQKRVTDVIITHAHASRIGGIKTLKERGIKAHSTALTAELAKKNGYEEPLGDLQTVTNLKFGNMKVETFYPGKGHTEDNIVVWLPQYNILVGGCLVKSTSAKDLGNVADAYVNEWSTSIENVLKRYRNINAVVPGHGEVGDKGLLLHTLDLLK", "soluble on expression in E. coli": "soluble"}, {"sequence": "SMGTKLKKSNNDITIFSENEYNEIVEMLRDYSNGDNLEFEVSFKNINYPNFMRITEHYINITPENKIESNNYLDISLIFPDKNVYRVSLFNQEQIGEFITKFSKASSNDISRYIVSLDPSDDIEIVYKNRGSGKLIGIDNWAITIKSTEEIPLVAGKSKISKPKITGSERIMYRYKTRYSFTINKNSRIDITDVKSSPIIWKLMTVPSNYELELELINKIDINTLESELLNVFMIIQD", "soluble on expression in E. coli": "soluble"}, {"sequence": "MRLVIARCSVDYIGRLEAHLPMADRLLMVKADGSVSIHADDRAYKPLNWMTPPCTLTETTHEESETGESIPLWIVENKKGEQLRITIEALHSDMYYDLGEDPGLQKDGVEAHLQELLAEHIETLGDGYSLVRREYPTPIGPVDILCRDDKGGSVAVEIKRRGGIDGVEQLSRYLELLNRDDLLAPVAGVFAAQHIKPQARTLAEDRGIRCVTLDYDSLRGIESTELRLF", "soluble on expression in E. coli": "not soluble"}, {"sequence": "MGLSHKFQVKQFVEISPYSQSRLRHEQPQTPIHSDITTYHCHRGQFDIVAGGLPCQGTSNAGNRQGLDDPRSALWAEQFRIIESDRPAIALIENPTGLLYRGLEQIICDLDSIGYMGEWNCISAQQVGLPHQRKRIFIIAYSNGLFNQVVPAPWSNQIGNHITQVRLSLETRSYQPGISKVASRIPIGVAKNIPGNYDARRAYGLSCSPRQAAVAWKRIDYLCSLLEHHHHHH", "soluble on expression in E. coli": "not soluble"}, {"sequence": "MDGTMEDSEAVQRATALIEQRLAQEEENEKLRGDTRQKLPMDLLVLEDEKHHGAQSAALQKVKGQERVRKTSLDLRREIIDVGGIQNLIELRKKRKQKKRDALAASHEPPPEPEEITGPVDEETFLKAAVEGKMKVIEKFLADGGSADTCDQFRRTALHRASLEGHMEILEKLLDNGATVDFQDRLDCTAMHWACRGGHLEVVKLLQSHGADTNVRDKLLSTPLHVAVRTGQVEIVEHFLSLGLEINARDREGDTALHDAVRLNRYKIIKLLLLHGADMMTKNLAGKTPTDLVQLWQADTRHALEHPEPGAEHNGLEGPNDSGRETPQPVPAQLEHHHHHH", "soluble on expression in E. coli": "not soluble"}, {"sequence": "MLPVQILKDNAQEERGESARLSSFVGAIAIGDLVKSTLGPKGMDKILISGNPESAGGIKVTNDGATILKSIGVDNPAAKVLVDMSMTQDHEVGDGTTSVTVLAAELLKEAEKLVNQRIHPQTIISGYRRALGIAQESLKKSSIESGDNIRDDLLKIARTTLGSKILSQHKEHFAQLAVDAVLRLKGSGNLDAIQIIKKLGGSMNESYLDEGFLLEKLPGMFQPRRVEKAKILIANTPMDTDKVKVFGSRVRVDGVAKVAELEAAEKLKMKEKVDKILAHNCNVFINRQLIYNYPEQLFADAKVMAIEHADFEGIERLALVLGGEIVSTFDSPQTAQFGSCDLIEEIMIGEDRLLRFSGVKLGEACSVVLRGATQQILDESERSLHDALCVLVTHVKESKTVAGAGASEILMSSAIAVEAQKVAGKEALAVEAFGRALAQLPTIICDNAGLDSAELVTRLRAEHANGRHNMGIDIEKGEVADVTKLGVIESYNVKLCMVSSAAEATEQILRVDDIIKAAPRARAQDNRPC", "soluble on expression in E. coli": "not soluble"}, {"sequence": "MGSDKIHHHHHHRNGKTYTQPLTGQATDKIGEQIRELFNIDINPNGPAVKANNYVSTYMKRLYKQLENYEHGENHNEEEVNAWLSADRIVSHMAQEVSHRLDDGSYSIRFAKEHVPAKEGQSIVRAQLRIHIQGIVSPVFFYIEDTNLPGDTVLVSSDDPTVVTDVTTMVDRWSHLQLSTLPIVTARASTNDELKIEAFLVIALKDEDAGPPKKRSR", "soluble on expression in E. coli": "not soluble"}, {"sequence": "MSLDKNSKSFGEANERIGNAIHHVCLNASDAKFIKSNIQESYQSWANVLYDRVFLNWGLCDKKIYRELSSLNFDFSTVGFFPHVYGQSLLFYLIRPLIKIHFFNKRLLDVGCGNGVGLKISSELLKTRYALGIDLVSKLVTNSNNSFYIEDKINYMQADAENMAIANESFDIVTNLESSHLYPQIEHFFSEVERVLAPNGFFCYADVHFDVKQQAQRLEAFVKTKKNLRIIEKHNITKMVQASIYQRLIVNEKGFYQLAQYLLGPDKIHYTSELANVASSMGLMFLPWWRIRFKNPALQALGKFARRCKHWNKKYYFYYLIQKIDSEGHHHHHH", "soluble on expression in E. coli": "not soluble"}, {"sequence": "MGHHHHHHSHMTATVENLTFQKDTLGNAVDKNRRHGSTEPLVLAWSSQFRRLTWGCALDALHRSPCVAASQHGVTHLIRSSRTPHSTRCRKEDAQPGHHGNGAASVTAQARGQR", "soluble on expression in E. coli": "not soluble"}, {"sequence": "MSLIQGKAIIIGGGPCGLSAAIHLKQIGIDALVIEKGNVVNSIYNYPTHQTFFSSSEKLEIGDVAFITENRKPVRIQALSYYREVVKRKNIRVNAFEMVRKVTKTQNNTFVIETSKETYTTPYCIIATGYYDHPNYMGVPGEDLPKVFHYFKEGHPYFDKDVVVIGGKNSSVDAALELVKSGARVTVLYRGNEYSPSIKPWILPEFEALVRNGTIRMEFGACVEKITENEVVFRSGEKELITIKNDFVFAMTGYHPDHQFLEKIGVEIDKETGRPFFNEETMETNVEGVFIAGVIAAGNNANEIFIENGRFHGGHIAAEIAKRENHEGHHHHHH", "soluble on expression in E. coli": "soluble"}, {"sequence": "SLVSVRCAECKGKLLCGRSKCPLLEKYRFLKEIKIDSRILDPSPPSIFVGRVGYPKVYAGPLVSINADPVYADSPWLWKSIEEVIRLRTSMLRVSRRFRVEDVREEKKELTEMQEMTAAIKPVDVEAEIRKISRKAEFDDVMQPMGYSAIAESIKLAENPKIPDKVEKVYYDDMKAYEALSYLYNHGFSTYYLQKIFSAGILGERKSRKLVPTRWSITAVHSIVGEAIKREIAAYKPIDKTLLFNYEHFGNHFEVILSPENYFFQLVEIWQRKSFWSPKRTGLGLTART", "soluble on expression in E. coli": "soluble"}, {"sequence": "MLLKTIYCKVEEEKKKLFSNAQEKWSDIRHLDGFHGQFGGWYEDEACVFTLWEDRSTYQSFMNGAHDTIYLNSNQEDTFLSCEIELFQTLYDITDTHLKDVVTEGSFVRVAICDVKVEKEKYFLQKQETIWNKGMEKAKGMLGGVVGKSLKNENRYIVLTYWKDEQTHQHYVEEIFPDLYKLANIHEDIEEIKGKQAVCKEEWLVY", "soluble on expression in E. coli": "not soluble"}, {"sequence": "GVALGATRVIYPEGQKQVQLAVTNNDDKSSYLIQSWIENAEGKKDARFVITPPLFSMQGKKENTLRIIDATNGQMPEDRESLFWVNVKAIPAMDKAKTGENYLQFAIVSRIKLLYRPQGLVIPPEQAPGKLEFTRENGGLTLFNPTPYYLTVTDLKAGNKSLENTMVPPQGKVTVNIPGGYTGGDITYKTINDYGALTEQVRGVVK", "soluble on expression in E. coli": "soluble"}, {"sequence": "MSVIRKEDGAGGKYMVELLKKHVFPKIASRAGEIALEDMEDSSDFCDDFAFTTDSYVVSPPIFRGGSIGSLSVCGTSNDLAVMGAKPEFMSLALVIQDGFPLGDFRRIMDDIRDSVELVNLSIITGDTKVVESNVGIIVNTAGIGRRSEELERNLEVLRELRDYPYRWVRDKGLKEGDAIIVSGSIAEHAAVIMAERMGFEVEFKSDVYPVWLFVREALRRGGVTAMKDPTRGGIAAALNEMAEKSGVGIKIFEERIPLKDEVRGLCELLGLDPLTMANEGKVVFGVHPEMADEVLKALHKAGQKEAEIIGYATKEFAEVVLETAVGTTRVVPQPISDPIPRVC", "soluble on expression in E. coli": "not soluble"}, {"sequence": "FNRGGYNFGKSVRHVVDAIGSVAGIRGILKSIR", "soluble on expression in E. coli": "soluble"}, {"sequence": "MSLGITRVVLADDHAVVRAGLRTALAALPDCEVVSEAATGPQLLAVLAQHHPDLLVVDVAMPDFDPIATIRQIHADYPAMKILVVSAYDDQSYVVGLLAAGVNGYHLKDQPLSDLQLAVQRIMAGGNWISSPLLSRLIQAAPQIAHSSPITLTKRQRDLLRLIAQGYDNRRMAQEMDLSIKTIENHLTALYRTIRVSSRLEAYQFALRHPELLAESGHEAALSREPSTSPAPLMVMIIDDNERYRAQLKRMIGKACAESQIYEAEDCHEATRLLRQITPDLVFVDVILQDGDGIQCLRRLKSVSPHTRVILISAYPDREFRRLGLEAGALAFLDKKDLDAATVRQVVEDTLRREGHHHHHH", "soluble on expression in E. coli": "soluble"}, {"sequence": "MKFLFIVQGEGRGHLTQAITLEEILRRNGHEVVEVLVGKSSSRRLPGFFNRNIHAPVKRFVSPNFLPTPANKRVSLMRSVAYNLVKLPVYINSINYIRQRIEASGADRVINFYELLTGLTYFLFRPSVPQICIGHQYLFLHKSFEFPKADKVSLALLKFFTVLTSLGAKERLALSFRHMKDDPQNHIRVIPPLLRREVTLHEPYSGDYIHGYMVNAGFSENVMKWHRQHPGIPLRFFWDKWEEEPVKRVDNTLSFYQLDDVEFLRQMAGCKAYASTAGFESVCEAMYLGKPILMVPAHIEQDCNAYDAEKSGAGIISSDFNLQQLLEFAKDYHPNRDFVYWVRGAEYTLLNLLESDSSNYQQVLFNEMYLVEEFI", "soluble on expression in E. coli": "not soluble"}, {"sequence": "LMTIKCLLLAVMVCPFFITACSDKYSEQDRVQAINNADAPFGAGLLTFQISSDTQLNSLNEISNSCALLFLQASDKNTLQDIMNNPVLIKQFFIGTGKVDGILKVDKYVAMPGQEITLHIDRNEGTKYVGVVAGYYPFPGKQHMLLLDIPVDVVEEGWWNKSLHASLLPLSKKISMGKESISMK", "soluble on expression in E. coli": "not soluble"}]}]}
